Data reported in article PMC6424611 (Journal of molecular biology, 2019).
Where no end group is shown, it is not given here. [ ]: non-standard residue; d: D form. The star is where a group is joined. Biotin = O=C1N[C@H]2[C@H](CS[C@H]2CCCCC(=O)*)N1; TTDS = NCCCOCCOCCOCCCNC(=O)CCC(=O)*; pS = N[C@@H](COP(=O)(O)O)C(=O)O

B1: biotinylated RSK1 725-735 peptide, phosphorylated at Ser732 (position -3) (peptide, UniProt Q15418 725-735, looked up)
peptide: {Biotin-TTDS}-RRVRKLP[pS]TTL
B2: biotinylated RSK1 725-735 peptide, unphosphorylated (peptide, UniProt Q15418 725-735, looked up)
peptide: {Biotin-TTDS}-RRVRKLPSTTL
B3: RSK1 683-735 peptide, phosphorylated (peptide, UniProt Q15418 683-735, looked up)
peptide: QSQLSHQDLQLVKGAMAATYSALNSSKPTPQLKPIESSILAQRRVRKLPSTTL
modifications: also: monophosphorylated, site not given here
B4: MBP-fused PDZ domain 1 of PARD3B (domain or fragment, human, UniProt Q8TEW8 201-289, looked up)
chain: TRTVEISGEGGPLGIHVVPFFSSLSGRILGLFIRGIEDNSRSKREGLFHENECIVKINNVDLVDKTFAQAQDVFRQAMKSPSVLLHVLP
B5: MBP-fused PDZ domain 1 of PDZRN4 (domain or fragment, human, UniProt Q6ZMN7 224-314, looked up)
chain: TIVLERENDTLGFNIIGGRPNQNNQEGTSTEGIYVSKILENGPADRADGLEIHDKIMEVNGKDLSKATHEEAVEAFRNAKEPIVVQVLRRT
B6: PDZ domain 2 of MAGI3 (domain or fragment, human, UniProt Q5TCQ9 410-492, looked up)
chain: RASLKKSTMGFGFTIIGGDRPDEFLQVKNVLKDGPAAQDGKIAPGDVIVDINGNCVLGHTHADVVQMFQLVPVNQYVNLTLCR

Columns and labels:
[1] = target: B4; assay: SPR
[2] = target: B5; assay: SPR
[3] = target: B4; assay: holdup assay
[4] = target: B5; assay: holdup assay
PDZ domain 2 of MAGI3 = target: B6; assay: holdup assay
[5] = target: B4; assay: fluorescence polarisation
[6] = target: MBP-fused PDZ domain of HTRA1 (human, UniProt Q92743 365-467); assay: fluorescence polarisation
[7] = target: T1, MBP-fused PDZ domain of SNTB1 (human, UniProt Q13884 112-195); assay: fluorescence polarisation
T1 sequence (looked up): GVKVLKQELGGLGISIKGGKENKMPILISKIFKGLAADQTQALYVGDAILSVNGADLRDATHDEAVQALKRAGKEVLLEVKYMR

[8] = target: T2, MBP-fused PDZ domain of SNTG2 (human, UniProt Q9NY99 73-156); assay: fluorescence polarisation
T2 sequence (looked up): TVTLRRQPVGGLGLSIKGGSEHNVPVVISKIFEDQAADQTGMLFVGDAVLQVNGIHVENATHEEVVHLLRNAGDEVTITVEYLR

[9] = target: T3, MBP-fused PDZ domain of MAST1 (human, UniProt Q9Y2H9 967-1055); assay: fluorescence polarisation
T3 sequence (looked up): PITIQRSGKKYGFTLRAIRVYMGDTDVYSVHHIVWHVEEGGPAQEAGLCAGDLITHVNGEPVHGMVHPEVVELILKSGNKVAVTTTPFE

[10] = target: MBP-fused PDZ domain of SNX27 (human, UniProt Q96L92 43-136); assay: fluorescence polarisation
[11] = target: T4, MBP-fused PDZ domain 3 of PDZD7 (human, UniProt Q9H5P4 862-934); assay: fluorescence polarisation
T4 sequence (looked up): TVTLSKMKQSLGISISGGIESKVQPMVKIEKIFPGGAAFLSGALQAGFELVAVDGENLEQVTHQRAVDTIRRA

[12] = target: T5, MBP-fused PDZ domain of MAST2 (human, UniProt Q6P0Q8 1104-1192); assay: fluorescence polarisation
T5 sequence (looked up): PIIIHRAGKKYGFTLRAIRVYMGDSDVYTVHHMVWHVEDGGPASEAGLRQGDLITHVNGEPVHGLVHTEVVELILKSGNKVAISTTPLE

[13] = target: MBP-fused PDZ domain 2 of GRID2IP (human, UniProt A4D2P6 279-356); assay: fluorescence polarisation
[14] = target: B1; assay: holdup assay
[15] = target: B2; assay: holdup assay

Chain of MBP-fused PDZ domain 2 of GRID2IP (A4D2P6 279-356): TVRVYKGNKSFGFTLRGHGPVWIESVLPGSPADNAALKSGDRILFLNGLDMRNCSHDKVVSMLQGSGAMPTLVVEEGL
Chain of MBP-fused PDZ domain of HTRA1 (Q92743 365-467): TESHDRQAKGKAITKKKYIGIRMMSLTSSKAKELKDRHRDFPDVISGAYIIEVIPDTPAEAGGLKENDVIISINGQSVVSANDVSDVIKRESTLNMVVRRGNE

Binder	Kd [1] [µM]	Kd [2] [µM]	Kd [3] [µM]	Kd [4] [µM]	Kd (PDZ domain 2 of MAGI3) [µM]	BI [14]	BI [15]	also measured
B1	6.1 ± 0.4	7.1 ± 0.9	35.1	12.6	40.8			
B2	4 ± 0.3	0.97 ± 0.18	13.8	14.4	40.8			
B3								Kd [5]: 31 ± 3.5 µM; Kd [6]: 33 ± 2 µM; Kd [7]: 4.5 ± 0.3 µM; Kd [8]: 4.8 ± 1.7 µM; Kd [9]: 92 ± 12 µM; Kd [10]: 32 ± 5 µM; Kd [11]: 46 ± 7 µM; Kd [12]: 48 ± 84 µM; Kd [13]: 85 ± 11 µM
B4						0.31 ± 0.02	0.52 ± 0.05	
B5						0.54 ± 0.03	0.51 ± 0.02	
B6						0.28 ± 0.06	0.28 ± 0.03	
